# Source: a protein production outcome set (Wang et al. 2014)
# Experiment: label from the status in PepcDB records
# 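Further: failed if final PepcDB status was selected cloned or expressed and not failed if soluble or beyond.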
row,Sequence,protein production
1,MELSSSESLGFSKILKERVKVKPMNKYAILAVLLWSTVASAFKLTLSRLDTISMLFYSSLTSTVIFLLANLKDIKTFSIKANLNSVFFGFINPFLYYLVLFSAYSILPAQEAQALNYTWPIILVIFSSAFLGQRLSERDFLGVIIGFLGALVVGTRGNLSSLHFANPMGDLLALCSAIIWAIYWILNLRDPRKAEVKMMWNFIFGFLYISILGVIEGIKFDPYGVLGAIYVGTFEMGLTFLLWLKALESEEAGKVASLIYLTPVLSLLFISIVVGEKILGSTIVGLALILLGIALSRR,failed
2,MELTALDKLEIMELAARFEMSLDKEDVENYLATFASDGALQGFWGIAKGKEELRQGFYAMLDTFARGKRHCSSNAIIQGNYDEATMESYLTVVNREDLNRAGSAFVKDQVRKINGKWYLILRQIEVDPSLPLLQQSQQAGANA,not failed
3,MELTQTHLLPVPLQTAWDALNDPAVLQRCIPGCESVTAATEHAYDIAMTAAVGPVKARFKGRMELADIVPPRSYTLHFDGQGGAAGFGKGTAQVQLAPEGPTVTRLSYTAHAQVGGKLAQIGSRLIDGAARKLADEFFQRFASEFGPAGGTGPLDAAPADQAIPDLASGELAAHGAPRTPLISPAVQPRNPWPWIIVALVAIVAAYLFLHHGA,failed
4,MEMINVFVYGTLRRGGGNHQLIAEYVQSVHEATVKGMLFHLPYGYPAMVDGRGTVRGEILELSNPETALTILDELEGYHGPGQSNEYERITVTAVTADGNKYICYTYVYPEEQREWLEQNAQPIFGGDWMAFLHSKDEVMYFAYGSCMSERDFRRTVPHFEVMGRAVLDDYRLAFTRYSSGRQGGVADIVPSPGDRVEGVLYKISSRYVKDLDWREGVPAGVYRREYIDVQHNGQLVSALTYVVVEKQLDEIAPSESYASIILDEGTSLLSPQYIEQVRRHIETLQKKGR,failed
5,MEMKKMKKMDKMELLKQIMAVDFTIIDLSLYLNTHPMDKEAIAKHNAFVAQSHMLKGQYQKYYGMLTATNSCSPYPWQWIKEPWPWEYDANFRL,failed
6,MEMYFKRMKDEWTGLVEQADPPIRAKAAEIAVAHAHYLSIEFYRIVRIDPHAEEFLSNEQVERQLKSAMERWIINVLSAQVDDVERLIQIQHTVAEVHARIGIPVEIVEMGFRVLKKILYPVIFSSDYSAAEKLQVYHFSINSIDIAMEVMTRAFTFSDSSASKELEHHHHHH,not failed
7,MENDSSIQWEHSHDFGLDNKLHENKVKTVFWLTTVIMVLEIGAGTWSGSMALLADGWHMGTHSAAFLIAIFAYSYAKKHANNKDFSFGTGKVNSLGGFASAIALAIVALMMIVESVQRLLEPQSIHFNEAIVVAIIGLVVNVASVFILHDDHHHHGEHHHDHDHNMKAAYFHVLADTLTSLLAIVALLIGKYVGLIWMDPLMGIVGAIVILRWSYGLIKDSSNVLLDKSVKKSTLEQISKALSKKNTVINDIHVWTIATAHQAAILKVTSAQPLNSDEYEGILREILPQLSHISIEIRHDYSL,failed
8,MENIEYVFEDVVRIYDTDAQGIAHYAAYYRFFTNTIEKFIKEKVGIPYPIVNENLWFVIAESHAIYHRPVKLGDKLTVLLNPKILSNKTIKFEFKVLKDGELTTEGYVIQIAINPKIWKSTEMPKEIMDKLSIK,not failed
9,MENKPDYFHHIEHRKFQSSSKITLWLSLVITMIFTVVEFVGGIVSNSLALLSDSFHMLSDVLALGLSMVAIYFSSKPPTKNYTYGFLRLEIIVAFLNGLALIVISLGIMYEGIMRIIHPRPVESGIMILIAFIGLIANIVLTIILMISLKKENNINIQSALWHFIGDLLNSLGIIVAFVLIHFTGWNIVDPIISILISLIILRGGYKIIKNASKVLMERVPDRYDTDEIMGAMKDVEGVIDIHEFHLWSVTTNQSSLSAHVVLSDDYIKSPYATINKVSDLLKTQYGLEHVTLQIENINLNHLDEEYFKQLQE,failed
10,MENLALTTLLLPFIGALVVSFSPQRRAAEWGVLFAALTTLCMLSLISAFYQADKVAVTLTLVNVGDVALFGLVIDRVSTLILFVVVFLGLLVTIYSTGYLTDKNREHPHNGTNRYYAFLLVFIGAMAGLVLSSTLLGQLLFFEITGGCSWALISYYQSDKAQRSALKALLITHIGSLGLYLAAATLFLQTGTFALSAMSELHGDARYLVYGGILFAAWGKSAQLPMQAWLPDAMEAPTPISAYLHAASMVKVGVYIFARAIIDGGNIPHVIGGVGMVMALVTILYGFLMYLPQQDMKRLLAWSTITQLGWMFFGLSLSIFGSRLALEGSIAYIVNHAFAKSLFFLVAGALSYSCGTRLLPRLRGVLHTLPLPGVGFCVAALAITGVPPFNGFFSKFPLFAAGFALSVEYWILLPAMILLMIESVASFAWFIRWFGRVVPGKPSEAVADAAPLPGSMRLVLIVLIVMSLISSVIAATWLQ,failed
11,MENLKNVAPIEDFNWDAYENGEAVTSASHEDLEKAYDGTLNKVNDREVVDGTVIAMNKREVVVNIGYKSDGIIPLNEFRYNPDLKVGDTVEVYIENQEDKKGQLVLSHRKARATRSWDRVNAALENEEIIKGFIKCRTKGGMIVDVFGIEAFLPGSQIDVKPIRDYDVFVGKTMEFKVVKINQEFKNVVVSHKALIEAELEQQKKEIIGKLEKGQVLEGTVKNITSYGVFIDLGGVDGLIHITDLSWGRVSDPKEVVELDQKLNVVILDFDDEKKRIALGLKQLTPHPWDALDTDLKVGDKVKGKVVVMADYGAFIEIATGVEGLIHVSEMSWSQHLRSAQDFMKVGDEVEAVVLTLDREERKMSLGIKQLKQDPWETIEEKYPVGSKHTAKVRNFTNFGVFVEIEEGVDGLIHISDLSWTKKVKHPSEFTQIGADIEVQVLEIDKENRRLSLGHKQLEENPWDVFETVFTVGSVHEGTIIEMLDKGAVVALPYGVEGFATPKHLVKEDGSQAQLDEKLEFKVIEFNKDAKRIILSHSRIFEDVAKAEERAEKKAASGAKKSSNNKREDAPMIQNQAASTTLGDIDALAALKEQLEGKKLEHHHHHH,not failed
12,MENMIVIMAGGRSSRMGAEKPILKVNGKPMILRVYEESTKVGETLVAISKNTPKTRELCIKEGIPLIETPGEGYVEDVRYLLKELGSFVSVSADLPFVKACDIAEVKKAFDGKTSLTGVLPLSKVPTDLRPVVYKGYVIVGLNGVGFEGEKFYELSNPLLALNVNTPEELKLANRIAKLIGLEHHHHHH,failed
13,MENQKMQEPLVYRRILLTVDEDDNTSSERAFRYATTLAHDYDVPLGICSVLESEDINIFDSLTPSKIQAKRKHVEDVVAEYVQLAEQRGVNQVEPLVYEGGDVDDVILEQVIPEFKPDLLVTGADTEFPHSKIAGAIGPRLARKAPISVIVVR,not failed
14,MENRAHALAAGLFILLLGVATVMAVKWFSRDSVSYNHYFLVSAGGAVSGLNPEASVRYRGVNVGKVEEIYFDRENIRNIIVRIAVNHNVVLPGDIYAQLASQGITGLTYIELNDDVADAETKPLQNEARIPLRSSLIKTLSDSLEEILKNSNMAIRQISNLLNEQNQTHISSILSHLEQAVQHYDTLTGQLQKGLQTLPQLSSELTSTFKQTRQVMENTSQVLQKLNQQQGLVDNLTQGSLEMTRTLTSLNETGVAITQSAHKLDQLLNLLEDHPQSLVFGKPPALPGPGEPGFSPPQPGK,failed
15,MENSDETKMSEEILALVDEFQQAWPLEGFGGALEMKGRRLDLQGIRVLKKGPQDGVARSSCYGDCRSEDDEATEWITFQVKRVKKPKGDHKKTPGKKVETGQIENGHRYQANLEITGPKVASPGPQGKKRDYQRLGWPSPDECLKLRWVELTAIVSTWLAVSSKNIDITEHIDFATPIQQPAMEPLCNGNLPTSMHTLDHLHGVSNRASLHYTGESQLTEVLQNLGKDQYPQQSLEQIGTRIAKVLEKSQTSWVLSSMAALYWRVKGQGKKAIDCLRQALHYAPHQMKDVPLISLANILHNAKLWNDAVIVATMAVEIAPHFAVNHFTLGNVYVAMEEFEKALVWYESTLKLQPEFVPAKNRIQTIQCHLMLKKGRRSP,failed
16,MENSLRSTLLDIVKGCIATVALFIAYLELPVIGMLAGVVVPLPALLYDLKRGKWSGLAIVLASALIFMLIAGPAGALLYVLQAGIFSLALPRFLTMGGGPARALASAVAVTVAVITAAAVGYGVTRGVTVEGQVAESLQSSITQAIQLYEKSGVSGADLDELREGMEQAAKSLAQLYPSLFVVGIAMAGGLNLLLLQRFGRRLGLAVPGGSFGKYRNPDHLVWLPICAGFALLAGHDAVTTIALNVLVLTGFLYFIQGMAIIIHLFDRYAAPAFLRYLLYFLLFVQAYLVVAVALFGLLDLWGNFRRPRIPTNL,failed
17,MEPCELSANTVIAHPRALTDKMTLIRDAGPSKFQVFPTPISEQGDAYYDAKRQALYDHYHPLEISPVIPIDEKTKLMEEWWGKTHELLIEGGLTYDAIKKSVANSSIAFREGVSELFEFLEKKEIPVLIFSAGLADVIEEVTLKSISLLELLSYFCCLYNEYAFVAYSHSYQVLRQNLDRTFKNVKIVSNRMVFNDDGQLVSFKGKLIHVLNKNEHALDMAAPLHDRLGVDIGEEDEENVNMKERRNVLLMGDHLGDLRMSDGLDYETRISIGFL,failed
18,MEPRVGNKFRLGRKIGGGSFGEIYLGTNIQTNEEVAIKLENVKTKHPQLLYESKLYKVLQGGTGVPNVKWYGVEGDYNVLVIDLLGPSLEDLFNFCSRKLSLKTVLMLADQMINRIEFVHQKSFLHRDIKPDNFLMGLGRRANQVYVIDFGLAKKYRDSNHQHIPYRENKNLTGTARYASMNTHLGIEQSRRDDLESLGFVLMYFLKGSLPWQGLKAGNKKQKYEKISEKKVSTSIEALCRGYPSEFASYFHYCRSLRFDDKPDYAYLKRLFRDLFIREGFQFDYVFDWTILKYQQSQISTPPPRHHGPVVGPSSALPPAITSAERPSGGDEARPSGWSSGIPRRNSGQIFNSGSLAKQKAPVSSDPAISKDVVLSSSSFLRATGSSRRAAVSSSREAAVLGTDSEPSNPQIVEAGSGSNSKIPVSRNSPIVSSEINKLSSPSRATTSVMKNYEANLKGIESLHF,not failed
19,MEPSSLVLALEQTSEVLGKEPIVPFAILLVVLLVVPILFERLRLPGIVGLVLSGLVLGPSGWNLFHTKSPMISLLSDIGLVYLMFVAGLEVDLELWRRRQRRALGFGCVSFTIPLLIGTLVGRFFHFGWNTSVLIGSLLTSYSLLAYPIINRLGVISNQAVTITIGATVFTDISALIVLAICIPAFQMGMSNIYQILSLLGWLIIYSIVILVGFDWAGREFFRRSGDDEGNKFLFVLLTVFLAVVVAQLIGIEKILGAFLAGLAVNEAVGEGPVKEKIVFVGSVLFIPIFFINLGLLIDLPGLVNSLFTLQLTSLIVISLVASKFIAAWLAKVFYGYSWQEMLTMWSLSIPQVGTTLAATFVGYHTGLLSSAVLTSVVILMLITATLGPLITSRTARALTTVSITESVDANLPEPQVIETQNGNFTIVVPIYNPHTQQYLVEMAALLAHQAQGRIIPLTIATAAAHMDAPQLESTLQRSERLLAKATSQSQALGVAASPLLRIDDASAPGISRAAREQKANLIVMGWGKRTGLRARLFGNVIDNVLWSSHCPVAVTRLVESPKKIQRILVPVENLITPTLQPVQFAQMLAEANQAQVTVLNVCDRRTSSSKIASRRSQLALLVSKLALPNSPEVQIIAHENAAQAILQAARLYDLVVLPFIRNRTSPGGLALSDVTTQLASQLTCSIVMLGEPQRLQTGNITSVAPNTTTAV,failed
20,MEQHHVRSLLKPSAYPDPTGSVELVQTHVSYIFLTDNFAYKVKKPVDFGFLNFSTPDRRRFYCEEEVRLNRRLCPDIYLGVAEVRDTPAGAAFVGEGQVIDHAVKMKRLPADRMLDRLLSAGLAGEPEIRAVARVVGTFHLEAEHSSEIDAFGDLATINANWVENFQQTRPYCGITLSAGDHDFIRGWVERFMAERVDLFAARVGDGRIRDGNGDIHMENICLGADGRVCIFDCIEFNNRFRYGDTAADIAFLLMDFDFVLRPDLGAAFLDEYTRITNDASVVEMIDFYKVYRAFVRGKVESMRLSDPQIPENEKQAAAARASRYFRLARGYAVRQGLPPTLFITCGLTGTGKSRLSRELSLDLGLEIASSDVVRKELAGLRSTERPDQDYGAGIYTDRFSLLTYGELERRARVALEGGRSIVVDATFRRRADRERFGALARDAGATFVILHAVCPEPTIRSRLNSRQKDRSEPSDGTWEVYLRQKDEFDPPSDQEGNLLCIDTSDTASAMVDKVLHGLELLPCGKS,failed
